This series in a line: protein stability index of a GFP-peptide fusion (GPS, HEK-293T) (PSI 1-6); higher = more stable.
Where [1] appears, read: treatment: DMSO, c terminus: a fixed tail appended.
Where [2] appears, read: treatment: MLN4924 1 uM, 8 h, c terminus: a fixed tail appended.
Setting [3] is: treatment: DMSO, c terminus: native.
The mark [4] stands for this setting: treatment: MLN4924 1 uM, 8 h, c terminus: native.

± gives the standard deviation.
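Note: 24-mer peptide tiles fused after GFP, lentivirally expressed, FACS-sorted into six equal bins by GFP/DsRed ratio, decoded by Illumina sequencing, PSI is the read-weighted mean bin number.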

Regarding AAAFSQCEEWSFFHAYYYCFITLT [KCNK9], the protein stability index under setting [1] is 3.33 ± 0.51 and the protein stability index under setting [2] worked out at 3.23 ± 0.49.

As to AAANGGHVKIVKLLLAHKADVNAQ [ANKRD17], the protein stability index stood at 2.51 ± 0.31 under setting [1] and 2.68 ± 0.18 under setting [2].

As for AACIAYIRLTQYIDGQGRPRTSQS [CAMK2B], the protein stability index by setting is: under setting [1], 2.24 ± 0.54; under setting [2], 2.48 ± 0.23. AAGQRSRPSTYYELLGVHPGASTE [DNAJC4] had a protein stability index under setting [1] of 3.58 ± 0.32 and a protein stability index under setting [2] of 3.71 ± 0.23.

For the sequence AALGSRGSCSTEVEKETQEKMTIL [ATP6V1G1], the protein stability index is, setting by setting: under setting [1], 2.52 ± 0.47; under setting [2], 2.52 ± 0.55.

AALKQAIKDKEAPLHVAQTRLYLR [TEKT4]: the protein stability index is, setting by setting: under setting [1], 3.06 ± 0.15; under setting [2], 3.07 ± 0.18.

Sequence ACCGGFLEVADFLIKAGADIELGC [ANKRD17] came in with a protein stability index under setting [2] of 3.05 ± 1.1.

In the case of ACGLGGGYGGGFSSSSSFGSGFGG [KRT16], the protein stability index was 2.17 ± 0.27 under setting [1] and 2.29 ± 0.25 under setting [2]. ADAVNLTIPASLDLSPLLGFWQLP [PLAGL1] displayed a protein stability index under setting [1] of 2.28 ± 0.27 and a protein stability index under setting [2] of 2.28 ± 0.23.

For ADGIEVSYNACGVLSHIMFDGPEA [ZER1], the protein stability index by setting is: under setting [1], 2.93 ± 0.28; under setting [2], 2.94 ± 0.27. ADSGNFKRCINLWKYALDMQQSNL [FEM1C] registered a protein stability index under setting [1] of 2.15 ± 0.37 and a protein stability index under setting [2] of 2.21 ± 0.37.

In the case of AEDFSTMDEISEKLKKGICEALED [MATN2], the protein stability index by setting is: under setting [1], 5.22 ± 0.32; under setting [2], 5 ± 0.33.

In the case of AEFQLVRDVVLCSLLNFLPEGVNK [TENT5C], the protein stability index is 2.37 ± 0.7 under setting [1] and 3.07 ± 0.85 under setting [2]. As to AEGIGSTVFRAILDYYKTGIIRCP [BTBD10], the protein stability index runs as follows: under setting [1], 2.12 ± 0.42; under setting [2], 1.99 ± 0.2.

Turning to AETAGAIMAFFLCLGLALGAVFSF [SLC29A1], the protein stability index by setting is: under setting [1], 3.35 ± 0.66; under setting [2], 3.03 ± 0.24.

Regarding AFHRKSHSLDLNISEKLTLLPTLY [RNF180], the protein stability index turned out to be 2.34 ± 0.39 under setting [1] and 2.1 ± 0.34 under setting [2]. Turning to AGINTHSNEFKESALTLACYKGHL [ANKRD17], the protein stability index is, setting by setting: under setting [1], 2.76 ± 0.19; under setting [2], 2.86 ± 0.47. AGISRSPTICMAYLMKTKQFRLKE [DUSP5]: the protein stability index is, setting by setting: under setting [1], 2.21 ± 0.3; under setting [2], 2.13 ± 0.24.

For the sequence AGSSHTPSSQSSSGGGRDSSSSIL [ELOA2], the protein stability index reads like this: under setting [1], 4.82 ± 0.26; under setting [2], 4.78 ± 0.14. As to AIFIMSLNKRHSSGDGNSKLKSE [MFSD9], the protein stability index reads like this: under setting [3], 2.64 ± 0.27; under setting [4], 2.22 ± 0.15. In the case of AIHSSDEDEDEDDEEDFEDDDEWE [WASL], the protein stability index amounted to 4.48 ± 0.26 under setting [1] and 4.49 ± 0.27 under setting [2].

On to ALCMLAQSSPSFAEKCLDFLVDMF [INTS4], for which the protein stability index reads like this: under setting [1], 1.86 ± 0.1; under setting [2], 2.35 ± 0.064.

Regarding ALGAMWKLHKSQLSQALNGLSDRA [TRIM9], the protein stability index by setting is: under setting [1], 2.21 ± 0.29; under setting [2], 2.34 ± 0.35. Consider ALMHVMQKRSRAIHSSDEGEDQAG [WAS], for which the protein stability index was 4.25 ± 0.27 under setting [1] and 4.49 ± 0.13 under setting [2]. With ALREVYAHAVLGQHSHVVRYFSAW [WEE1], the protein stability index turned out to be 2.36 ± 0.34 under setting [1] and 2.03 ± 0.3 under setting [2]. As to ALVYSITAQSTFNDLQDLREQILR [RAP1B], the protein stability index is, setting by setting: under setting [1], 2.27 ± 0.33; under setting [2], 2.42 ± 0.4. With AMALTSSMNWGINLLISLTFLTVT [SLC2A12], the protein stability index was 3.14 ± 0.36 under setting [1] and 3.32 ± 0.33 under setting [2].

With APRFSFNDPSGSEEADFLSAETGS [IRX6], the protein stability index runs as follows: under setting [1], 5.36 ± 0.14; under setting [2], 5.33 ± 0.24. In the case of APSLRRHVLIHNTLQQLQAALRLA [SERTAD3], the protein stability index was 2.21 ± 0.33 under setting [1] and 2.29 ± 0.13 under setting [2]. As to AQALGYYYVLEPRVVDGTPCSPDS [ADAMTS4], the protein stability index under setting [1] was 2.74 ± 0.52 and the protein stability index under setting [2] was 2.7 ± 0.38. In turn, AQDLTEAEGWHFFCFQGEATRKLA [SAT2] returned a protein stability index under setting [1] of 2.94 ± 0.36 and a protein stability index under setting [2] of 3.32 ± 0.46. With AQILPSRVQGGCYRFDSSSCSSED [DRICH1], the protein stability index by setting is: under setting [1], 4.05 ± 0.26; under setting [2], 3.92 ± 0.35. With AQKISKGADPKSVVCAFFKQGQCT [ZC3H15], the protein stability index stood at 3.32 ± 0.34 under setting [1] and 3.31 ± 0.26 under setting [2]. On the same counts, the results for AQVLLAMHANVEDRGIKGDITPLM [ANKRD17] are 2.99 ± 0.093 and 3.04 ± 0.13. ARGEDRAGPQSPSPGAPPAAKPAR [TSPAN10] gave a protein stability index under setting [1] of 5.1 ± 0.56 and a protein stability index under setting [2] of 5.65 ± 0.097. On the same counts, the results for ARGLDDAAARGGQCPGLGPAPTPT [ZBED3] are 4.65 ± 0.14 and 4.7 ± 0.25. On the same counts, the results for ARIQTLEPDNWMKEVMLFGHGTRK [RSAD1] are 3 ± 0.5 and 3.33 ± 0.35. For the sequence ARKQDMNTKRAIHTLAVMNDRLYA [KLHL14], the protein stability index runs as follows: under setting [1], 2.55 ± 0.24; under setting [2], 2.93 ± 0.36. On the same counts, the results for ARPSETFARFCKSQESALGNTVPA [DNAAF3] are 3.12 ± 0.26 and 2.94 ± 0.26. On the same counts, the results for ARWRRLRLQQLRRLRGLLRVLRGR [FBXO33] are 3.52 ± 0.39 and 3.95 ± 0.65. As for ASGSTQRQPPPPAPQHPQPGSQAL [FBXO28], the protein stability index runs as follows: under setting [1], 5.14 ± 0.27; under setting [2], 5.12 ± 0.089.

For the sequence ASNWSTTGFGQGQGYTINVPWNQV [HDAC6], the protein stability index by setting is: under setting [1], 2.14 ± 0.47; under setting [2], 2.22 ± 0.43.

In turn, ASSQHSEGSRSSGSNRSGSDRRKE [DVL3] gave a protein stability index under setting [1] of 5.37 ± 0.16 and a protein stability index under setting [2] of 5.52 ± 0.16. Regarding ASWMYQLQHGDQLSICFTCFKAAF [TEX19], the protein stability index reads like this: under setting [1], 2.59 ± 0.42; under setting [2], 2.51 ± 0.53. Consider ATDGARPQALPEPMQESKAEGNNQ [CHGA], for which the protein stability index is 5.67 ± 0.18 under setting [1] and 5.76 ± 0.11 under setting [2].

Consider ATLFFNPQESAILQLFHQDGTFSP [CLCN6], for which the protein stability index reads like this: under setting [1], 2.25 ± 0.42; under setting [2], 2.29 ± 0.074. On the same counts, the results for ATSATSHTRSLNSIIHQMEKFSSS [FBF1] are 3.34 ± 0.28 and 3.59 ± 0.39.

As for ATSGPPGIQPGQEPPVTMIFMGYQ [PALM], the protein stability index came out at 2.47 ± 0.24 under setting [1] and 2.38 ± 0.14 under setting [2]. For AVLGGFLYAVGGQDGVSCLNIVER [KLHL20], the protein stability index is, setting by setting: under setting [1], 2.16 ± 0.45; under setting [2], 2.55 ± 0.47. On the same counts, the results for AVLTTHHHWDHARGNPELARLRPG [HAGHL] are 3.28 ± 0.17 and 3.4 ± 0.34. As for AVNAHQWLDNPERWNKVKMVVSRE [SEPHS2], the protein stability index under setting [1] was determined as 3.02 ± 0.37 and the protein stability index under setting [2] was 2.67 ± 0.3.

With AVVKGIQSSGKVMYFSSLFPYVVL [SLC6A17], the protein stability index by setting is: under setting [1], 3.09 ± 0.49; under setting [2], 2.51 ± 0.028. Sequence AWLEGRIRQEFDKLREFLRVEEQA [TRIM35] yielded a protein stability index under setting [1] of 2.81 ± 0.4 and a protein stability index under setting [2] of 2.94 ± 0.5.

On to AWTLINLSFAAKQRELHSHVTNAM [DHCR7], for which the protein stability index by setting is: under setting [1], 3.12 ± 0.34; under setting [2], 3.05 ± 0.24. As to AYAHPQQKVAVYRALQAALAESGG [TRADD], the protein stability index worked out at 2.43 ± 0.51 under setting [1] and 2.65 ± 0.34 under setting [2]. On the same counts, the results for AYDEALAELHAHGPAAFVDYFERN [ZSWIM9] are 3.73 ± 0.24 and 3.74 ± 0.34. On the same counts, the results for CADVPLLTPSSKEMMSQALKATFS [ETS1] are 2.79 ± 0.2 and 2.66 ± 0.3. As for CAGSTALQEPGEPQGPPASPSCPE [PXN], the protein stability index was 5.15 ± 0.27 under setting [1] and 5.48 ± 0.18 under setting [2]. On to CATDTKNVQFVFDAVTDVIIKNNL [GNAI1], for which the protein stability index is, setting by setting: under setting [1], 2 ± 0.28; under setting [2], 2.43 ± 0.22. On the same counts, the results for CFLLTAMAYDQFLAICRPLTYSTR [OR3A1] are 2.89 ± 0.35 and 2.89 ± 0.69. Take CGKSFTQSSGLIRHQRIHTGERPY [ZSCAN9]: the protein stability index runs as follows: under setting [1], 2.14 ± 0.034; under setting [2], 2.25 ± 0.21. CGRYINGHMLQHHGNSGHPLVLSY [HDAC6]: the protein stability index is, setting by setting: under setting [1], 2.51 ± 0.29; under setting [2], 2.65 ± 0.77.

In turn, CGSFYREPIILPCSHNLCQACARN [TRIM9] registered a protein stability index under setting [1] of 2.22 ± 0.25 and a protein stability index under setting [2] of 2.19 ± 0.33. Take CGYFQVVNYTQGLWEKVMPSRYAA [SLC19A2]: the protein stability index under setting [1] was 2.7 ± 0.79 and the protein stability index under setting [2] stood at 2.46 ± 0.41. For the sequence CIELYFDEKYSIEPSWECKFDHIE [NETO1], the protein stability index by setting is: under setting [1], 2.13 ± 0.42; under setting [2], 2.24 ± 0.25. Regarding CIGQRRFHTMDELVEHYKKAPIFT [NCK2], the protein stability index is, setting by setting: under setting [1], 2.54 ± 0.2; under setting [2], 2.65 ± 0.38. Consider CKKGDPKHGKRKRGRPRKLSKEYW [ELF3], for which the protein stability index by setting is: under setting [1], 3.56 ± 0.13; under setting [2], 3.85 ± 0.22.

For CKNSNTVYCKLESCPSRGQGKPS [SPRY1], the protein stability index reads like this: under setting [3], 3.789 ± 0.011; under setting [4], 3.97 ± 0.22. Regarding CKRMDLVCQRMLNQGFLKVERYHN [FBXO28], the protein stability index turned out to be 2.38 ± 0.29 under setting [1] and 2.1 ± 0.16 under setting [2]. Take CKSGYHPTKSHSFRAMCQNGKLVY [CFHR2]: the protein stability index reads like this: under setting [1], 2.16 ± 0.18; under setting [2], 2.38 ± 0.43. For CLELVSCFVLFSLTHTHTHTPNHR [ANKRD44], the protein stability index by setting is: under setting [1], 2.7 ± 0.081; under setting [2], 3.55 ± 0.097. As for CLFSERDAAGAPRDASDPLAGAAL [SMAD6], the protein stability index came to 4 ± 0.46 under setting [1] and 4.33 ± 0.2 under setting [2].
